The series concerns the molecule itself. Kind of series: SEC-HPLC of IMAC-purified protein from cpcE or cpcF mutant. On the technique in general: In gel filtration, larger molecules generally elute earlier.

Method: Size Exclusion Chromatography-High Performance Liquid Chromatography—Although IMAC-purified and dialyzed samples (see above) could be used with no obvious effect on the results, proteins to be analyzed by SEC-HPLC were generally dialyzed again in 50 mM Na—PO₄ pH 7.0, 50 mM NaCl, 0.5 mM DTT. […] A mobile phase of 50 mM Na—PO₄ pH 7.0 was flowed at 0.8 ml min⁻¹ through Bio-Sil 250 (Bio-Rad Laboratories, Hercules, Calif.) guard column (80×7.8 mm) and column (300×7.8 mm) maintained at 25° C. For analytical separations, 50 to 200 μg of phycocyanin was loaded [based on absorbance at the peak near 621 nm and using a molar extinction coefficient of 290,000 M⁻¹ cm⁻¹ per monomer (29)]. Molecular size calibration utilized bovine gamma globulin, 158 kDa; chicken ovalbumin, 44 kDa; horse myoglobin, 17 kDa; vitamin B12, 1.35 kDa (Bio-Rad gel filtration standards). The void volume was determined with blue dextran, 2000 kDa (Pharmacia Biotech, Piscataway, N.J.). Preparative separations were performed with loads of 0.5 to 1 mg phycocyanin.

B1: His-tagged C-phycocyanin β subunit, holo-HTβ (other, Anabaena sp. PCC7120, UniProt P07120 1-173, looked up)
chain: MTLDVFTKVVSQADSRGEFLSNEQLDALANVVKEGNKRLDVVNRITSNASAIVTNAARALFEEQPQLIAPGGNAYTNRRMAACLRDMEIILRYVTYAILAGDASVLDDRCLNGLRETYQALGTPGSSVAVGVQKMKDAAVGIANDPNGITKGDCSQLISEVASYFDRAAAAVG
modifications: two phycocyanobilins (PCB); methylated Asn72
notes: Encoded by pBS262, expressed in Anabaena sp; also called An262; not shown: 24-residue N-terminal extension with 6xHis tag and TEV protease site
Consider B1, for which the binding result is “binds”.
